Assay results taken from the PETadex activity labels (doi:10.1021/bi00096a018).

substrate: Acetylcholine; settings: pH 7; 22 °C

Protein | Km | kcat
unnamed (protein) MRPPWYPLHTPSLAFPLLFLLLSLLGGGARAEGREDPQLLVRVRGGQLRGIRLKAPGGPVSAFLGIPFAEPPVGSRRFMPPEPKRPWSGVLDATTFQNVCYQYVDTLYPGFEGTEMWNPNRELSEDCLYLNVWTPYPRPASPTPVLIWIYGGGFYSGAASLDVYDGRFLAQVEGAVLVSMNYRVGTFGFLALPGSREAPGNVGLLDQRLALQWVQENIAAFGGDPMSVTLFGESAGAASVGMHILSLPSRSLFHRAVLQSGTPNGPWATVSAGEARRRATLLARLVGCPPGGAGGNDTELIACLRTRPAQDLVDHEWHVLPQESIFRYSFVPVVDGDFLSDTPEALINTGDFQDLQVLVGVVKDEGSYFLVYGVPGFSKDNESLISRAQFLAGVRIGVPQASDLAAEAVVLHYTDWLHPEDPTHLRDAMSAVVGDHNVVCPVAQLAGRLAAQGARVYAYIFEHRASTLTWPLWMGVPHGYEIEFIFGLPLDPSLNYTTEERIFAQRLMKYWTNFARTGDPNDPRDSKSPQWPPYTTAAQQYVSLNLKPLEVRRGLRAQTCAFWNRFLPKLLSATDTLDEAERQWKAEFHRWSSYMVHWKNQFDHYSKQERCSDL | 58 µM | 650 s⁻¹
unnamed (protein) MRPPWYPLHTPSLAFPLLFLLLSLLGGGARAEGREDPQLLVRVRGGQLRGIRLKAPGGPVSAFLGIPFAEPPVGSRRFMPPEPKRPWSGVLDATTFQNVCYQYVDTLYPGFEGTEMWNPNRELSEDCLYLNVWTPYPRPASPTPVLIWIYGGGFYSGAASLDVYDGRFLAQVEGAVLVSMNYRVGTFGFLALPGSREAPGNVGLLDQRLALQWVQENIAAFGGDPMSVTLFGESAGAASVGMHILSLPSRSLFHRAVLQSGTPNGPWATVSAGEARRRATLLARLVGCPPGGAGGNDTELIACLRTRPAQDLVDHEWHVLPQESIFRFSFGPVVDGDFLSDTPEALINTGDFQDLQVLVGVVKDEGSYFLVYGVPGFSKDNESLISRAQFLAGVRIGVPQASDLAAEAVVLHYTDWLHPEDPTHLRDAMSAVVGDHNVVCPVAQLAGRLAAQGARVYAYIFEHRASTLTWPLWMGVPHGYEIEFIFGLPLDPSLNYTTEERIFAQRLMKYWTNFARTGDPNDPRDSKSPQWPPYTTAAQQYVSLNLKPLEVRRGLRAQTCAFWNRFLPKLLSATDTLDEAERQWKAEFHRWSSYMVHWKNQFDHYSKQERCSDL | 50 µM | 2670 s⁻¹
unnamed (protein) MRPPWYPLHTPSLAFPLLFLLLSLLGGGARAEGREDPQLLVRVRGGQLRGIRLKAPGGPVSAFLGIPFAEPPVGSRRFMPPEPKRPWSGVLDATTFQNVCYQNVDTLYPGFEGTEMWNPNRELSEDCLYLNVWTPYPRPASPTPVLIWIYGGGFYSGAASLDVYDGRFLAQVEGAVLVSMNYRVGTFGFLALPGSREAPGNVGLLDQRLALQWVQENIAAFGGDPMSVTLFGESAGAASVGMHILSLPSRSLFHRAVLQSGTPNGPWATVSAGEARRRATLLARLVGCPPGGAGGNDTELIACLRTRPAQDLVDHERHVLPQESIFRFSFVPVVDGDFLSDTPEALINTGDFQDLQVLVGVVKDEGSYFLVYGVPGFSKDNESLISRAQFLAGVRIGVPQASDLAAEAVVLHYTDWLHPEDPTHLRDAMSAVVGDHNVVCPVAQLAGRLAAQGARVYAYIFEHRASTLTWPLWMGVPHGYEIEFIFGLPLDPSLNYTTEERIFAQRLMKYWTNFARTGDPNDPRDSKSPQWPPYTTAAQQYVSLNLKPLEVRRGLRAQTCAFWNRFLPKLLSATDTLDEAERQWKAEFHRWSSYMVHWKNQFDHYSKQERCSDL | 670 µM | 3170 s⁻¹
unnamed (protein) MRPPWYPLHTPSLAFPLLFLLLSLLGGGARAEGREDPQLLVRVRGGQLRGIRLKAPGGPVSAFLGIPFAEPPVGSRRFMPPEPKRPWSGVLDATTFQNVCYQNVDTLYPGFEGTEMWNPNRELSEDCLYLNVWTPYPRPASPTPVLIWIYGGGFQSGAASLDVYDGRFLAQVEGAVLVSMNYRVGTFGFLALPGSREAPGNVGLLDQRLALQWVQENIAAFGGDPMSVTLFGESAGAASVGMHILSLPSRSLFHRAVLQSGTPNGPWATVSAGEARRRATLLARLVGCPPGGAGGNDTELIACLRTRPAQDLVDHEWHVLPQESIFRFSFVPVVDGDFLSDTPEALINTGDFQDLQVLVGVVKDEGSYFLVYGVPGFSKDNESLISRAQFLAGVRIGVPQASDLAAEAVVLHYTDWLHPEDPTHLRDAMSAVVGDHNVVCPVAQLAGRLAAQGARVYAYIFEHRASTLTWPLWMGVPHGYEIEFIFGLPLDPSLNYTTEERIFAQRLMKYWTNFARTGDPNDPRDSKSPQWPPYTTAAQQYVSLNLKPLEVRRGLRAQTCAFWNRFLPKLLSATDTLDEAERQWKAEFHRWSSYMVHWKNQFDHYSKQERCSDL | 95 µM | 1570 s⁻¹
unnamed (protein) MRPPWYPLHTPSLAFPLLFLLLSLLGGGARAEGREDPQLLVRVRGGQLRGIRLKAPGGPVSAFLGIPFAEPPVGSRRFMPPEPKRPWSGVLDATTFQNVCYQYVDTLYPGFEGTEMWNPNRELSEDCLYLNVWTPYPRPASPTPVLIWIYGGGFYSGAASLDVYDGRFLAQVEGAVLVSMNYRVGTFGFLALPGSREAPGNVGLLDQRLALQWVQENIAAFGGDPMSVTLFGESAGAASVGMHILSLPSRSLFHRAVLQSGTPNGPWATVSAGEARRRATLLARLVGCPPGGAGGNDTELIACLRTRPAQDLVDHERHVLPQESIFRFSFVPVVDGDFLSDTPEALINTGDFQDLQVLVGVVKDEGSYFLVYGVPGFSKDNESLISRAQFLAGVRIGVPQASDLAAEAVVLHYTDWLHPEDPTHLRDAMSAVVGDHNVVCPVAQLAGRLAAQGARVYAYIFEHRASTLTWPLWMGVPHGYEIEFIFGLPLDPSLNYTTEERIFAQRLMKYWTNFARTGDPNDPRDSKSPQWPPYTTAAQQYVSLNLKPLEVRRGLRAQTCAFWNRFLPKLLSATDTLDEAERQWKAEFHRWSSYMVHWKNQFDHYSKQERCSDL | 420 µM | 2670 s⁻¹
unnamed (protein) MRPPWYPLHTPSLAFPLLFLLLSLLGGGARAEGREDPQLLVRVRGGQLRGIRLKAPGGPVSAFLGIPFAEPPVGSRRFMPPEPKRPWSGVLDATTFQNVCYQYVDTLYPGFEGTEMWNPNRELSEDCLYLNVWTPYPRPASPTPVLIWIYGGGFYSGAASLDVYDGRFLAQVEGAVLVSMNYRVGTFGFLALPGSREAPGNVGLLDQRLALQWVQENIAAFGGDPMSVTLFGESAGAASVGMHILSLPSRSLFHRAVLQSGTPNGPWATVSAGEARRRATLLARLVGCPPGGAGGNDTELIACLRTRPAQDLVDHEWHVLPQESIFRFSFVPVVDGDFLSDTPEALINTGDFQDLQVLVGVVKDEGSFFLVYGVPGFSKDNESLISRAQFLAGVRIGVPQASDLAAEAVVLHYTDWLHPEDPTHLRDAMSAVVGDHNVVCPVAQLAGRLAAQGARVYAYIFEHRASTLTWPLWMGVPHGYEIEFIFGLPLDPSLNYTTEERIFAQRLMKYWTNFARTGDPNDPRDSKSPQWPPYTTAAQQYVSLNLKPLEVRRGLRAQTCAFWNRFLPKLLSATDTLDEAERQWKAEFHRWSSYMVHWKNQFDHYSKQERCSDL | 53 µM | 1130 s⁻¹
unnamed (protein) MRPPWYPLHTPSLAFPLLFLLLSLLGGGARAEGREDPQLLVRVRGGQLRGIRLKAPGGPVSAFLGIPFAEPPVGSRRFMPPEPKRPWSGVLDATTFQNVCYQYVDTLYPGFEGTEMWNPNRELSEDCLYLNVWTPYPRPASPTPVLIWIYGGGFQSGAASLDVYDGRFLAQVEGAVLVSMNYRVGTFGFLALPGSREAPGNVGLLDQRLALQWVQENIAAFGGDPMSVTLFGESAGAASVGMHILSLPSRSLFHRAVLQSGTPNGPWATVSAGEARRRATLLARLVGCPPGGAGGNDTELIACLRTRPAQDLVDHEWHVLPQESIFRFSFVPVVDGDFLSDTPEALINTGDFQDLQVLVGVVKDEGSYFLVYGVPGFSKDNESLISRAQFLAGVRIGVPQASDLAAEAVVLHYTDWLHPEDPTHLRDAMSAVVGDHNVVCPVAQLAGRLAAQGARVYAYIFEHRASTLTWPLWMGVPHGYEIEFIFGLPLDPSLNYTTEERIFAQRLMKYWTNFARTGDPNDPRDSKSPQWPPYTTAAQQYVSLNLKPLEVRRGLRAQTCAFWNRFLPKLLSATDTLDEAERQWKAEFHRWSSYMVHWKNQFDHYSKQERCSDL | 120 µM | 1830 s⁻¹
unnamed (protein) MRPPWYPLHTPSLAFPLLFLLLSLLGGGARAEGREDPQLLVRVRGGQLRGIRLKAPGGPVSAFLGIPFAEPPVGSRRFMPPEPKRPWSGVLDATTFQNVCYQNVDTLYPGFEGTEMWNPNRELSEDCLYLNVWTPYPRPASPTPVLIWIYGGGFYSGAASLDVYDGRFLAQVEGAVLVSMNYRVGTFGFLALPGSREAPGNVGLLDQRLALQWVQENIAAFGGDPMSVTLFGESAGAASVGMHILSLPSRSLFHRAVLQSGTPNGPWATVSAGEARRRATLLARLVGCPPGGAGGNDTELIACLRTRPAQDLVDHEWHVLPQESIFRFSFVPVVDGDFLSDTPEALINTGDFQDLQVLVGVVKDEGSYFLVYGVPGFSKDNESLISRAQFLAGVRIGVPQASDLAAEAVVLHYTDWLHPEDPTHLRDAMSAVVGDHNVVCPVAQLAGRLAAQGARVYAYIFEHRASTLTWPLWMGVPHGYEIEFIFGLPLDPSLNYTTEERIFAQRLMKYWTNFARTGDPNDPRDSKSPQWPPYTTAAQQYVSLNLKPLEVRRGLRAQTCAFWNRFLPKLLSATDTLDEAERQWKAEFHRWSSYMVHWKNQFDHYSKQERCSDL | 110 µM | 2170 s⁻¹
